Experimental data published in article doi:10.1101/2023.09.21.558797, “Dynamin 1xA interacts with Endophilin A1 via its spliced long C-terminus for ultrafast endocytosis” (bioRxiv, 2023).
No end group written: not given here.

T1: GST-Dyn1xA-PRR (full-length proline-rich region of Dynamin 1 splice variant xA, 746-864) (rat, UniProt P21575 746-864)
T1 construct: cloned in pGEX-6P-1; used on beads in pull-downs and in solution in the ELISA; also called PRD
T1 sequence (looked up): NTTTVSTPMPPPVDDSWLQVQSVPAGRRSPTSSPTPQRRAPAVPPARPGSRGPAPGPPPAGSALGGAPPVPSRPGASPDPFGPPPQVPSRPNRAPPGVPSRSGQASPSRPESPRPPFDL

T2: Dyn1xA-PRR 746-864 (GST tag removed) (rat, UniProt P21575 746-864, 15N-labelled (or 15N, 13C labelled) for NMR)
T2 construct: the SEC-MALS mass (19.2 kDa for the 1:1 complex) fits the cleaved forms; also called PRD; source: E. coli JM109, GST tag proteolytically cleaved, purified by gel filtration
T2 sequence (looked up): T1 sequence (looked up)

B1: GST-Dyn1xA 806-864 (domain or fragment, rat, UniProt P21575 806-864, looked up)
chain: GSALGGAPPVPSRPGASPDPFGPPPQVPSRPNRAPPGVPSRSGQASPSRPESPRPPFDL
notes: Dynamin 1 splice variant xA, rat, G806 to L864
B2: Dyn1xA 806-864 (GST tag removed) (domain or fragment, rat, UniProt P21575 806-864, looked up)
chain: B1 chain
modifications: also: 15N-labelled (13C/15N for assignment)
notes: Dynamin 1 splice variant xA, rat, G806 to L864; source: E. coli JM109, GST tag proteolytically cleaved, purified by gel filtration
B3: GST-Dyn1xA 746-798 (domain or fragment, rat, UniProt P21575 746-798, looked up)
chain: NTTTVSTPMPPPVDDSWLQVQSVPAGRRSPTSSPTPQRRAPAVPPARPGSRGP
notes: Dynamin 1, rat, N746 to P798 of the PRR, common to splice variants xA and xB; also called phosphobox-1 peptide
B4: Dyn1xA 746-798 (GST tag removed) (domain or fragment, rat, UniProt P21575 746-798, looked up)
chain: B3 chain
modifications: also: 15N-labelled (13C/15N for assignment)
notes: Dynamin 1, rat, N746 to P798 of the PRR; source: E. coli JM109, GST tag proteolytically cleaved, purified by gel filtration
B5: His-tagged mouse Endophilin A1 SH3 domain (domain or fragment)
chain: not shown
notes: Endophilin A1, mouse, SH3 domain; the methods describe only a GST-Endophilin A1-SH3 construct (mouse, 292-352); no His-tagged construct is described there; also called His-tagged mouse Endophilin-SH3 domain
B6: Endophilin A1 SH3 domain (GST tag removed) (domain or fragment)
chain: not shown
notes: Endophilin A1, mouse, SH3 domain, amino acids 292-352 by the methods (the results say residues D291-H352); plasmid from Peter McPherson (McGill University); unlabelled in the titrations; also called endophilin SH3; Endophilin A SH3; source: E. coli JM109, GST tag proteolytically cleaved, purified by gel filtration

Tests used:
Details in all cases: both partners purified
[1] = biological target: B5; assay: ELISA; His-tagged mouse Endophilin A1 SH3 domain coated on a 96-well plate, overlaid with increasing concentrations of GST-tagged Dyn1-PRR peptides; two experiments of four replicates
[2] = biological target: B6; assay: NMR titration; 1H-15N HSQC chemical shift perturbation; unlabelled Endophilin A1 SH3 titrated into 15N-labelled Dyn1 peptide; 298 K, 600 MHz
[3] = biological target: T1, GST-Dyn1xA-PRR (full-length …); assay: ELISA; His-tagged mouse Endophilin A1 SH3 domain coated on a 96-well plate, overlaid with increasing concentrations of GST-tagged Dyn1-PRR peptides; two experiments of four replicates
[4] = biological target: T2, Dyn1xA-PRR 746-864 (GST tag removed); assay: SEC-MALS; Superdex 75 10/300 GL, 20 mM HEPES, 100 mM NaCl, 1 mM DTT, 1 mM PMSF, pH 7.2; complex at 0.5 mg and diluted to one third (0.167 mg)

Sequence of His-tagged mouse Endophilin A1 SH3 domain (Q62420 290-349): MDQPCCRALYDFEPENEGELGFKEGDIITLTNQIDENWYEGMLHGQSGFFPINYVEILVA

Binder: B1
fold difference in affinity from xA_(746–864) [1]: < 2 fold
fold higher affinity than xA_(746–798) [1]: 5 fold

Binder: B2
binding result [2]: binds

Binder: B3
fold weaker affinity than xA_(746–864) [1]: 9 fold

Binder: B4
binding result [2]: binds

Binder: B5
Kd [3]: 44 nM

Binder: B6
stoichiometry N [4]: 1
